Laboratory results reported in US20210208163A1 (RUSH UNIVERSITY MEDICAL CENTER, published 2021).

B1: mouse ICOSL, wild type (RGD), full-length, N-terminal His-tag (ligand, not shown: small tags and cut ends)
chain: ETEVGAMVGSNVVLSCIDPHRRHFNLSGLYVYWQIENPEVSVTYYLPYKSPGINVDSSYKNRGHLSLDSMKQGNFSLYLKNVTPQDTQEFTCRVFMNTATELVKILEEVVRLRVAANFSTPVISTSDSSNPGQERTYTCMSKNGYPEPNLYWINTTDNSLIDTALQNNTVYLNKLGLYDVISTLRLPWTSRGDVLCCVENVALHQNITSISQAESFTGNNTKNPQETHNNE
notes: also called mICOSL; WT mICOSL
B2: recombinant human ICOS (R&D Systems, 169-CS) (receptor, UniProt Q9Y6W8 21-141, looked up)
chain: EINGSANYEMFIFHNGGVQILCKYPDIVQQFKMQLLKGGQILCDLTKTKGSGNTVSIKSLKFCHSQLSNNSVSFFLYNLDHSHANYYFCNLSIFDPPPFKVTLTGGYLHIYESQLCCQLKF
B3: human ICOSL (inducible co-stimulator ligand), full-length, isoform 1, N-terminal His-tag (ligand, not shown: small tags and cut ends)
chain: DTQEKEVRAMVGSDVELSCACPEGSRFDLNDVYVYWQTSESKTVVTYHIPQNSSLENVDSRYRNRALMSPAGMLRGDFSLRLFNVTPQDEQKFHCLVLSQSLGFQEVLSVEVTLHVAANFSVPVVSAPHSPSQDELTFTCTSINGYPRPNVYWINKTDNSLLDQALQNDTVFLNMRGLYDVVSVLRIARTPSVNIGCCIENVLLQQNLTVGSQTGNDIGERDKITENPVSTGEKNAAT
notes: The reagent list also names a bought human ICOSL-His Tag (Thermo Fisher 11559H08H50); also called hICOSL; B7h
B4: recombinant human B7.1 (R&D Systems, 140-B1) (ligand, UniProt P33681 35-242, looked up)
chain: VIHVTKEVKEVATLSCGHNVSVEELAQTRIYWQKEKKMVLTMMSGDMNIWPEYKNRTIFDITNNLSIVILALRPSDEGTYECVVLKYEKDAFKREHLAEVTLSVKADFPTPSISDFEIPTSNIRRIICSTSGGFPEPHLSWLENGEELNAINTTVSQDPETELYAVSSKLDFNMTTNHSFMCLIKYGHLRVNQTFNWNTTKQEHFPDN
notes: also called RGD-lacking B7.1

What was measured:
[1] = molecular target: T1, recombinant mouse integrin αvβ3 (R&D Systems, 7889-AV-050) (mouse, UniProt P43406 31-988; O54890 26-717); experiment: SPR, ICOSL immobilised, αvβ3 as analyte, 0.2 mM Ca2+ and 0.1 mM Mg2+, kinetic 1:1 fit
T1 construct: also called mouse αvβ3 integrin
T1 sequence (P43406 31-988 limits assumed, chain 1 of 2): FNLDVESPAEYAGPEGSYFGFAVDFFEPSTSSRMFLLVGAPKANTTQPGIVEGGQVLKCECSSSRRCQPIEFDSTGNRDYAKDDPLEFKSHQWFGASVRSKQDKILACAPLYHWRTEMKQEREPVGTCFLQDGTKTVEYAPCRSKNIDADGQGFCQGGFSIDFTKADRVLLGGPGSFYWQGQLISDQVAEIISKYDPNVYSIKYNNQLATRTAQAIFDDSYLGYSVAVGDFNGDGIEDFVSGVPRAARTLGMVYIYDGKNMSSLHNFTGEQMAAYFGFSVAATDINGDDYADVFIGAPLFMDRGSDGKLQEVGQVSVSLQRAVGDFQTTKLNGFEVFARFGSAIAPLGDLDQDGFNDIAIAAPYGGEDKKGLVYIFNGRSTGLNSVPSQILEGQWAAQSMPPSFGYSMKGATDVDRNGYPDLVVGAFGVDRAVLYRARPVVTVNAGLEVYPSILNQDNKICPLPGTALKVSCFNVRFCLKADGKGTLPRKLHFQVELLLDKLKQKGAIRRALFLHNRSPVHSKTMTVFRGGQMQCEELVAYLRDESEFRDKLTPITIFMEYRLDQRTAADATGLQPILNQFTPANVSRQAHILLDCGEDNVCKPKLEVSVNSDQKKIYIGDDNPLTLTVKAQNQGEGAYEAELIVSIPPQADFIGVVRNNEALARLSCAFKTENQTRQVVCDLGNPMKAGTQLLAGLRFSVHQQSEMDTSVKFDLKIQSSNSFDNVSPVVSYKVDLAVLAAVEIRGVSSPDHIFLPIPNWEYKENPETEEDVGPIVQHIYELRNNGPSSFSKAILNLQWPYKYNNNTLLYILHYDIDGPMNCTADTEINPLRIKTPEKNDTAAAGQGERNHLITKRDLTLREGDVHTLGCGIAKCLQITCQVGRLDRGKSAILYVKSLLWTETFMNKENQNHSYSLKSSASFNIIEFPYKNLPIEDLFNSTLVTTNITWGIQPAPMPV
T1 sequence (O54890 26-717 limits assumed, chain 2 of 2): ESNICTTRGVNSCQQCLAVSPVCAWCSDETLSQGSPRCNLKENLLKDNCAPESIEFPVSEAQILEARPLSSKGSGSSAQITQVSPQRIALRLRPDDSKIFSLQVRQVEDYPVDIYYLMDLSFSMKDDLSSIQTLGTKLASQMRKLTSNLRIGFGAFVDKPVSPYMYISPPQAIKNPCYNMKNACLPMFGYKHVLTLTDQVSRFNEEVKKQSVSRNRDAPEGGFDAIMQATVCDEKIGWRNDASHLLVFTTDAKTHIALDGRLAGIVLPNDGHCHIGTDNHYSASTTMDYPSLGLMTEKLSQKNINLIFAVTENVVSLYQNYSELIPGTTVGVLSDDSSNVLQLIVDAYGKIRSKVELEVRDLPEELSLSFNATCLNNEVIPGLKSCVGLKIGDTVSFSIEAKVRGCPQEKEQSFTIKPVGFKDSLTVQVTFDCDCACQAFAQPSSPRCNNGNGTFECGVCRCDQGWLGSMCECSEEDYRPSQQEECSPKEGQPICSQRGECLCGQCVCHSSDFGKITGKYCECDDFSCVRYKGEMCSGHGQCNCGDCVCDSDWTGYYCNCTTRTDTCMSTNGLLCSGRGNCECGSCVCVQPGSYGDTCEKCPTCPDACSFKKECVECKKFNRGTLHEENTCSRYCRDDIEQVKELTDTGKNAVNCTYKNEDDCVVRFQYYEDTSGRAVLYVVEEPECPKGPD

[2] = molecular target: T1, recombinant mouse integrin αvβ3 (R&D …); experiment: SPR (Biacore T200), ICOSL immobilised on CM5, αvβ3 as analyte, Mn2+ (active integrin), kinetic 1:1 Langmuir fit (kd/ka)
[3] = molecular target: T1, recombinant mouse integrin αvβ3 (R&D …); experiment: SPR, ICOSL immobilised, inactive αvβ3 (EDTA, no Mn2+), steady-state affinity fit
[4] = molecular target: T1, recombinant mouse integrin αvβ3 (R&D …); experiment: SPR, ICOSL immobilised, αvβ3 as analyte, 2 mM Ca2+ and 1 mM Mg2+ (inactive integrin)
[5] = molecular target: B3; experiment: SPR
[6] = molecular target: T2, recombinant human integrin αvβ3 (R&D Systems, 3050-AV) (human, UniProt P06756 31-992; P05106 27-718); experiment: SPR (Biacore T200), ICOSL immobilised on CM5, αvβ3 as analyte, Mn2+ (active integrin), kinetic 1:1 Langmuir fit (kd/ka)
T2 construct: Analyte in SPR; also called αvβ3 integrin
T2 sequence (P06756 31-992 limits assumed, chain 1 of 2): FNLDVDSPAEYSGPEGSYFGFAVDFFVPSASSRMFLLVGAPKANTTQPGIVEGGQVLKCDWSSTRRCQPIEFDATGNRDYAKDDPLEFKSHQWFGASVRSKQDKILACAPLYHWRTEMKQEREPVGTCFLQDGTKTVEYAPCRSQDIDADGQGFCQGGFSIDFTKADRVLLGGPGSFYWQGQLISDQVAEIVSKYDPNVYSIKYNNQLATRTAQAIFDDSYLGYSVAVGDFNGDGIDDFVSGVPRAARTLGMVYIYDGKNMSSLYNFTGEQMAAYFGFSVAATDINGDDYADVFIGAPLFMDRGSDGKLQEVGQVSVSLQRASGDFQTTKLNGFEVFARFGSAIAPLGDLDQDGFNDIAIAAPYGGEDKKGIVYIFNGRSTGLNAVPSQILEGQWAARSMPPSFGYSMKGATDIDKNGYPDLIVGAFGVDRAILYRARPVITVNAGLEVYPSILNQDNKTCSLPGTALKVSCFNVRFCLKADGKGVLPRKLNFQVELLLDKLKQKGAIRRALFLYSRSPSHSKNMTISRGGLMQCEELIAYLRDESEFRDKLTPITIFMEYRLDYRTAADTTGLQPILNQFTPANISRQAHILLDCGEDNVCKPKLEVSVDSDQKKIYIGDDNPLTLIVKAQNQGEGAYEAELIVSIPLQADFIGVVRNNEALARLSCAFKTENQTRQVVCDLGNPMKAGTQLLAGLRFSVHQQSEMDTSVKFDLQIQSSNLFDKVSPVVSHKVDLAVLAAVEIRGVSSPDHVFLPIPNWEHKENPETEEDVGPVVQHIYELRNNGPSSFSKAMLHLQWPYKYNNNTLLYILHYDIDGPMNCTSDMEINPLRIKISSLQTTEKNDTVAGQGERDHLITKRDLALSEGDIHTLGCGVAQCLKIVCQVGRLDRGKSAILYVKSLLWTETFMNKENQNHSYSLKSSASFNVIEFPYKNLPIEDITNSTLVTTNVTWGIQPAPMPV
T2 sequence (P05106 27-718 limits assumed, chain 2 of 2): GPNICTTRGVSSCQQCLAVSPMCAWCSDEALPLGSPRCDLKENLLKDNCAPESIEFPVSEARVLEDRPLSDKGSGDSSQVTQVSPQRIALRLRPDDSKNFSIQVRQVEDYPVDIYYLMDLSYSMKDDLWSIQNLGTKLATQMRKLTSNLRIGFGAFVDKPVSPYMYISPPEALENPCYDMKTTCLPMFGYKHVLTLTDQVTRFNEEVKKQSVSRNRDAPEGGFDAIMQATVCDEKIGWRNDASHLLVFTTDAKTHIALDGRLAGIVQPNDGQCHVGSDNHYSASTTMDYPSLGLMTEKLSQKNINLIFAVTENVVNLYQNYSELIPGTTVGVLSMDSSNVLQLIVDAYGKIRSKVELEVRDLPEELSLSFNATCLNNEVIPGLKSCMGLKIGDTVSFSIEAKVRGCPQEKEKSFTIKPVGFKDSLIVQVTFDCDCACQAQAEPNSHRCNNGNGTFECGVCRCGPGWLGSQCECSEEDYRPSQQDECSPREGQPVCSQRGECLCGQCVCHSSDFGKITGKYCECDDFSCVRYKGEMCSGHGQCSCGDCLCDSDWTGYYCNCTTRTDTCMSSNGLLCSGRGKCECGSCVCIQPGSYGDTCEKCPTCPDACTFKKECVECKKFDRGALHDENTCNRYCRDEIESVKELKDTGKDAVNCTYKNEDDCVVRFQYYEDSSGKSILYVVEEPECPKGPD

[7] = molecular target: T2, recombinant human integrin αvβ3 (R&D …); experiment: SPR, ICOSL immobilised, inactive αvβ3 (EDTA, no Mn2+), steady-state affinity fit
[8] = molecular target: recombinant human integrin αvβ5 (R&D Systems, 2528-AV) (human, UniProt P06756 31-992; P18084 24-719); experiment: SPR, ICOSL immobilised, integrin as analyte
Chain of recombinant human integrin αvβ5 (R&D Systems, 2528-AV) (P06756 31-992 limits assumed, chain 1 of 2): as the sequence (P06756 31-992 limits assumed, chain 1 of 2) above
Chain of recombinant human integrin αvβ5 (R&D Systems, 2528-AV) (P18084 24-719 limits assumed, chain 2 of 2): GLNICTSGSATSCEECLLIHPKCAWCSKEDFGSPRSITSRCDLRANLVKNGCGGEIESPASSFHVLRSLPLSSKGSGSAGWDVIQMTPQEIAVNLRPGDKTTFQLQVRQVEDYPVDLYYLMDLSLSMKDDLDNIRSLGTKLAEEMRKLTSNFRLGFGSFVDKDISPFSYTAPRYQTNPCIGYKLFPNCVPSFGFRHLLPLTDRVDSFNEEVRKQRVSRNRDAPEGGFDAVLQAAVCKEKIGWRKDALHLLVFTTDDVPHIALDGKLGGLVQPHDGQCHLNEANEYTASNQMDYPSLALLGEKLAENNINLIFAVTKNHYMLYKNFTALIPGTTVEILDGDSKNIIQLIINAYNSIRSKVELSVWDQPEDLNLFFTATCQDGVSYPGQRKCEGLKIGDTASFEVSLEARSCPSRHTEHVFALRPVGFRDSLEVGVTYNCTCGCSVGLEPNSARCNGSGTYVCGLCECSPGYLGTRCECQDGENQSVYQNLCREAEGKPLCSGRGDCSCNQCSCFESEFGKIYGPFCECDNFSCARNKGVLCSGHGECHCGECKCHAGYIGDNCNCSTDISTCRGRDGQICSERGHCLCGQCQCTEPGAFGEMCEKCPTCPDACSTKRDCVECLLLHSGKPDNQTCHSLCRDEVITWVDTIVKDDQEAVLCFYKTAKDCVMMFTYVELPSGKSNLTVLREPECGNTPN

[9] = molecular target: T3, recombinant human integrin αIIbβ3 (R&D Systems, 7148-A2) (human, UniProt P08514 32-993; P05106 27-718); experiment: SPR, ICOSL immobilised, integrin as analyte
T3 construct: also called αllbβ3
T3 sequence (P08514 32-993 limits assumed, chain 1 of 2): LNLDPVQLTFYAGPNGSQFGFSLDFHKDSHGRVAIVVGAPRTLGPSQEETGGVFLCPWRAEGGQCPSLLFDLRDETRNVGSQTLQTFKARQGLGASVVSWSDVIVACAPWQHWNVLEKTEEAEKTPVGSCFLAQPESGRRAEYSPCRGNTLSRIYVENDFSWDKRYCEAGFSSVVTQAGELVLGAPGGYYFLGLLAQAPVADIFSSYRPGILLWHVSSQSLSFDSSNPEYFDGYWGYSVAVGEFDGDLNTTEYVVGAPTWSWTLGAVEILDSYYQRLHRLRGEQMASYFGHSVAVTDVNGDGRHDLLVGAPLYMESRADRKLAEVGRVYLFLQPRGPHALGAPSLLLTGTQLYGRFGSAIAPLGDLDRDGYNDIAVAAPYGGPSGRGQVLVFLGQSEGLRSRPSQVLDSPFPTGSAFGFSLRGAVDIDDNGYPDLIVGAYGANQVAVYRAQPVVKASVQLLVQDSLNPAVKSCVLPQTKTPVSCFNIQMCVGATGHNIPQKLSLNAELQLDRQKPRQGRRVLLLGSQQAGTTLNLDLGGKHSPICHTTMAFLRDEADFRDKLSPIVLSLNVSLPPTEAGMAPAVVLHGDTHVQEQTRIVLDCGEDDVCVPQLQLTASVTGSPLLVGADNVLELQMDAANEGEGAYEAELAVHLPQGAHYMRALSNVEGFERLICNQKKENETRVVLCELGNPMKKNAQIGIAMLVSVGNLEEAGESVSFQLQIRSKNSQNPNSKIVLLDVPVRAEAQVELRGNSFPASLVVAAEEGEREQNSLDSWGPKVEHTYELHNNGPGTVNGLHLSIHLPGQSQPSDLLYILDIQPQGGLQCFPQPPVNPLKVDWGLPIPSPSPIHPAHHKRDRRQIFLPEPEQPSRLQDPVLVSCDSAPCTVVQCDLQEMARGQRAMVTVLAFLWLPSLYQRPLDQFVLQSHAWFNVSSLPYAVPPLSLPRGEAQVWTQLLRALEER
T3 sequence (P05106 27-718 limits assumed, chain 2 of 2): as the sequence (P05106 27-718 limits assumed, chain 2 of 2) above

[10] = molecular target: T2, recombinant human integrin αvβ3 (R&D …); experiment: SPR, Mn2+ (active integrin)

Binder: B1
- Kd [1]: 0.0213 µM
- Kd [2]: 0.0242 µM
- Kd [3]: ≥ 2000 µM
- Kd [4]: 0.4 µM

Binder: B2
- Kd [5]: 0.005 µM

Binder: B3
- Kd [6]: 0.0162 µM
- Kd [7]: 0.412 µM
- binding result [8]: no binding
- binding result [9]: no binding

Binder: B4
- binding result [10]: no binding
